Here are results for four molecules from patent US20060153853A1 (UNIVERSITY OF ADELAIDE, published 2006).

The target in experiment [1] is T1, IGF-II (insulin-like growth factor II) (UniProt P01344 25-91).
T1 construct: Amine-coupled (70 RU) to a CM-5 biosensor chip
The experiment can be described thus: SPR (BIAcore), IGF-II amine-coupled to CM5 chip; ratio against hIGFBP-2. As to the method:
(§1) The IGF surface was regenerated with 10 mM HCl.
(§2) Table 3. […] Data was analysed using BIAevaluation software 3.0 and fit to a Langmuir 1:1 binding model. The dissociation constant (KD) was determined from the calculation of kd/kₐ, where kₐ is the association rate and kd is the dissociation rate.

Experiment [2] has as its target T2, IGF-I (insulin-like growth factor I) (UniProt P05019 49-118).
T2 construct: Amine-coupled (70 RU) to a CM-5 biosensor chip; also added to HT-29 cells; also called IGF-1
Nature of the experiment: SPR (BIAcore), IGF-I amine-coupled to CM5 chip; ratio against hIGFBP-2. The procedure:
as §1
(§3) The dissociation constant (KD) was determined from the calculation of kd/kₐ, where kₐ is the association rate and kd is the dissociation rate.
On the technique in general: Surface plasmon resonance follows binding to a sensor surface in real time, without labels.

For experiment [3], the target named is T1, IGF-II (insulin-like growth factor II). Nature of the experiment: SPR (BIAcore) on immobilised IGF-II; text summing up Table 3. The procedure:
as §1, §2

Experiment [4] concerns the target T2, IGF-I (insulin-like growth factor I). The experiment can be described thus: SPR (BIAcore) on immobilised IGF-I; text summing up Table 2. As to the method: as §1, §3

Where a chain is given by its changes, count along the chain named. Names may count otherwise.

T1 sequence (P01344 25-91 limits assumed): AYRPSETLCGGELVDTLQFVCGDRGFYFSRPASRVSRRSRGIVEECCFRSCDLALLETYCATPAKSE
T2 sequence (P05019 49-118 limits assumed): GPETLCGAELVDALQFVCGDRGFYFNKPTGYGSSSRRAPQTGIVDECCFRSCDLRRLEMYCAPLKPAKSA

B1: K227AHis hIGFBP-2 (other, human)
chain: EVLFRCPPCTPERLAACGPPPVAPPAAVAAVAGGARMPCAELVREPGCGCCSVCARLEGEACGVYTPRCGQGLRCYPHPGSELPLQALVMGEGTCEKRRDAEYGASPEQVADNGDDHSEGGLVENHVDSTMNMLGGGGSAGRKPLKSGMKELAVFREKVTEQHRQMGKGGKHHLGLEEPKKLRPPPARTPCQQELDQVLERISTMRLPDERGPLEHLYSLHIPNCDAHGLYNLKQCKMSLNGQRGECWCVNPNTGKLIQGAPTIRGDPECHLFYNEQQEARGVHTQRMQHHHHHH
notes: mature
Take B1: the “Rel. KD (KD of hIGFBP-2/KD of hIGFBP-2 mutant)” value (shortened to “Rel. KD”) came to 1.27 in experiment [1] and 1.34 in experiment [2].

B2: K234AHis hIGFBP-2 (other, human)
chain: B1 chain with A227K, K234A
notes: mature; also called K234A hIGFBP-2; K234AHis IGFBP-2
For B2, the “Rel. KD” value in experiment [1] worked out at 0.37; in experiment [2] it was 0.64.

B3: K237AHis hIGFBP-2 (other, human)
chain: B1 chain with A227K, K237A
notes: mature
Take B3: the “fold higher affinity than native hIGFBP-2” value in experiment [3] and in experiment [4] was roughly 2 fold each time. For the same molecule, the “Rel. KD” value in experiment [1] came out at 2.9; in experiment [2] it was 2.29.

B4: K180A K181AHis hIGFBP-2 (other, human)
chain: B1 chain with K180A, K181A, A227K
notes: mature; also called K180A, K181A mutation
Take B4: the “Rel. KD” value is 0.68 in experiment [1] and 0.87 in experiment [2].
